This note sets out measurements from PMC10229695.

For data set [1], the system named is NLRP3 WT (human). In words: competition pulldown (streptavidin beads, western blot). The note with it: elution from biotinylated mtDNA beads, EMSA and pulldown: 50 mM Tris pH 7.4, 100 mM NaCl, 2 mM MgCl2, 12% glycerol, 4 C overnight (EMSA plus 2e-5 mg/ml salmon sperm DNA, 1e-5 uM ox-mtDNA), Fig …. For orientation: In EMSA bound probe runs differently from free probe, usually more slowly.

In data set [2] the test system is NLRP3 L266F (NOMID, C790T) (human). Described as above. The note with it: elution from biotinylated mtDNA beads; oxidized guanine (8-oxoguanine); EMSA and pulldown: 50 mM Tris pH 7.4, 100 mM NaCl, 2 mM MgCl2, 12% glycerol, 4 C overnight (EMSA plus 2e-5 mg/ml salmon sperm DNA, 1e-5 uM ox-mtDNA); Fig ….

In the case of “non-oxidized mtDNA competitor (unlabeled)”, the IC50 – broadly, the concentration at which inhibition is half-maximal – in data set [1] (R2 0.98, abstract prints 4 nM) is 4.8 nM.

For ox-mtDNA competitor (unlabeled), the IC50 was found to be 247 nM in data set [1] (poor fit, R2 0.6, text prints 247 nM, oxidized guanine (8-oxoguanine)) and 8.1 nM in data set [2].
